Results: patent US20210024654A1 (AMPHIVENA THERAPEUTICS, published 2021)

Molecular target: cynomolgus CD33 (cynomolgus)
Test: flow cytometry KDs on CHO cells, cyno CD33 / human CD33

Binder | KD ratio CynoCD33/huCD33
CD33/CD3 tandem diabody 02 (bispecific antibody) DIQMTQSPSSLSASVGDRVTITCRSSTGAVTTSNYANWVQQKPGKAPKGLIGGTNKRAPGVPARFSGSGSGTDFTLTISSLQPEDFATYYCALWYSNLWVFGQGTKVEIKGGSGGSQVQLVQSGAEVKKPGASVKVSCKASGYTFTSYDINWVRQAPGQGLEWMGWMNPNSGNTGFAQKFQGRVTMTRDTSTSTVYMELSSLRSEDTAVYYCARDRAVTDYYYGMDVWGQGTLVTVSSGGSGQSVLTQPPSASGTPGQRVTISCSGSRSNIGSNTVNWYQQLPGTAPKLLIYGNNQRPSGVPDRFSGSKSGTSASLAISGLQSEDEADYYCATWDDSLIGWVFGGGTKLTVLGGSGGSEVQLVESGGGLVQPGGSLRLSCAASGFTFSTYAMNWVRQAPGKGLEWVGRIRSKYNNYATYYADSVKDRFTISRDDSKNSLYLQMNSLKTEDTAVYYCARHGNFGNSYVSWFAYWGQGTLVTVSSAAAGSHHHHHH | 1.1
CD33/CD3 tandem diabody 03 (bispecific antibody) DIQMTQSPSSLSASVGDRVTITCRSSTGAVTTSNYANWVQQKPGKAPKGLIGGTNKRAPGVPARFSGSGSGTDFTLTISSLQPEDFATYYCALWYSNLWVFGQGTKVEIKGGSGGSQVQLVQSGAEVKKPGASVKVSCKASGYTFTSYDINWVRQAPGQGLEWMGWMNPNSGNTGFAQKFQGRVTMTRDTSTSTVYMELSSLRSEDTAVYYCARDRANTDYSFGMDVWGQGTLVTVSSGGSGQSVLTQPPSASGTPGQRVTISCSGSRSNIGSNTVNWYQQLPGTAPKLLIYGNNQRPSGVPDRFSGSKSGTSASLAISGLQSEDEADYYCATWDDSLIGWVFGGGTKLTVLGGSGGSEVQLVESGGGLVQPGGSLRLSCAASGFTFSTYAMNWVRQAPGKGLEWVGRIRSKYNNYATYYADSVKDRFTISRDDSKNSLYLQMNSLKTEDTAVYYCARHGNFGNSYVSWFAYWGQGTLVTVSSAAAGSHHHHHH | 0.6
CD33/CD3 tandem diabody 06 (bispecific antibody) DIQMTQSPSSLSASVGDRVTITCRSSTGAVTTSNYANWVQQKPGKAPKGLIGGTNKRAPGVPARFSGSGSGTDFTLTISSLQPEDFATYYCALWYSNLWVFGQGTKVEIKGGSGGSQVQLVQSGAEVKKPGASVKVSCKASGYTFTSYDINWVRQAPGQGLEWMGWMNPNSGNTGFAQKFQGRVTMTRDTSTSTVYMELSSLRSEDTAVYYCARDRANTDYSLGMDVWGQGTLVTVSSGGSGGQSVLTQPPSASGTPGQRVTISCSGSRSNIGSNTVNWYQQLPGTAPKLLIYGNNQRPSGVPDRFSGSKSGTSASLAISGLQSEDEADYYCATWDDSLIGWVFGGGTKLTVLGGSGGSEVQLVESGGGLVQPGGSLRLSCAASGFTFSTYAMNWVRQAPGKGLEWVGRIRSKYNNYATYYADSVKDRFTISRDDSKNSLYLQMNSLKTEDTAVYYCARHGNFGNSYVSWFAYWGQGTLVTVSSAAAGSHHHHHH | 0.8
CD33/CD3 tandem diabody 23 (bispecific antibody) DIQMTQSPSSLSASVGDRVTITCRSSTGAVTTSNYANWVQQKPGKAPKGLIGGTNKRAPGVPSRFSGSLIGTDFTLTISSLQPEDFATYYCALWYSNLWVFGQGTKVEIKGGSGGSQVQLVQSGAEVKKPGSSVKVSCKASGGTFSSYGISWVRQAPGQGLEWMGGIIPIFGSAHYAQKFQGRVTITADESTSTAYMELSSLRSEDTAVYYCAREYYYDSSEWAFDIWGQGTLVTVSSGGSGQSVLTQPPSASGTPGQRVTISCSGSSSNIGSNTVKWYQQLPGTAPKLLIYSNNQRSSGVPDRFSGSKSGSSASLAISGLQSEDEADYYCAAWDDSLNGYVFGGGTKLTVLGGSGGSEVQLVESGGGLVQPGGSLRLSCAASGFTFSTYAMNWVRQAPGKGLEWVGRIRSKYNNYATYYADSVKDRFTISRDDSKNSLYLQMNSLKTEDTAVYYCARHGNFGNSYVSWFAYWGQGTLVTVSS | 1.9

Next, values leading:

KD ratio CynoCD33/huCD33 | Binder
1.8 | CD33/CD3 tandem diabody 24 (bispecific antibody) DIQMTQSPSSLSASVGDRVTITCRSSTGAVTTSNYANWVQQKPGKAPKALIGGTNKRAPGVPSRFSGSLIGDKATLTISSLQPEDFATYYCALWYSNLWVFGQGTKVEIKGGSGGSQVQLVQSGAEVKKPGSSVKVSCKASGGTFDSYAISWVRQAPGQGLEWMGGIIPIFGSAHYSQKFQGRVTITADESTSTAYMELSSLRSEDTAVYYCAREYYYDSSEWAFDIWGQGTLVTVSSGGSGQSVLTQPPSASGTPGQRVTISCSGSSSNIGDNVVNWYQQLPGTAPKLLIYSTNKRPSGVPDRFSGSKSGSSASLAISGLQSEDEADYYCAAWDDSLSAYVFGGGTKLTVLGGSGGSEVQLVESGGGLVQPGGSLRLSCAASGFTFSTYAMNWVRQAPGKGLEWVGRIRSKYNNYATYYADSVKDRFTISRDDSKNSLYLQMNSLKTEDTAVYYCARHGNFGNSYVSYFAYWGQGTLVTVSSAAAGSHHHHHH
1.1 | CD33/CD3 tandem diabody 04 (bispecific antibody) DIQMTQSPSSLSASVGDRVTITCRSSTGAVTTSNYANWVQQKPGKAPKGLIGGTNKRAPGVPARFSGSGSGTDFTLTISSLQPEDFATYYCALWYSNLWVFGQGTKVEIKGGSGGSQVQLVQSGAEVKKPGASVKVSCKASGYTFTSYDINWVRQAPGQGLEWMGWMNPNSGNTGFAQKFQGRVTMTRDTSTSTVYMELSSLRSEDTAVYYCARDRANTDYSLGMDVWGQGTLVTVSSGGSGQSVLTQPPSASGTPGQRVTISCSGSRSNIGSNTVNWYQQLPGTAPKLLIYGNNQRPSGVPDRFSGSKSGTSASLAISGLQSEDEADYYCATWDDSLIGWVFGGGTKLTVLGGSGGSEVQLVESGGGLVQPGGSLRLSCAASGFTFSTYAMNWVRQAPGKGLEWVGRIRSKYNNYATYYADSVKDRFTISRDDSKNSLYLQMNSLKTEDTAVYYCARHGNFGNSYVSWFAYWGQGTLVTVSSAAAGSHHHHHH
0.8 | CD33/CD3 tandem diabody 05 (bispecific antibody) DIQMTQSPSSLSASVGDRVTITCRSSTGAVTTSNYANWVQQKPGKAPKGLIGGTNKRAPGVPARFSGSGSGTDFTLTISSLQPEDFATYYCALWYSNLWVFGQGTKVEIKGGSGGSQVQLVQSGAEVKKPGASVKVSCKASGYTFTSYDINWVRQAPGQGLEWMGWMNPNSGNTGFAQKFQGRVTMTRDTSTSTVYMELSSLRSEDTAVYYCARDRANTDYSFGMDVWGQGTLVTVSSGGSGGQSVLTQPPSASGTPGQRVTISCSGSRSNIGSNTVNWYQQLPGTAPKLLIYGNNQRPSGVPDRFSGSKSGTSASLAISGLQSEDEADYYCATWDDSLIGWVFGGGTKLTVLGGSGGSEVQLVESGGGLVQPGGSLRLSCAASGFTFSTYAMNWVRQAPGKGLEWVGRIRSKYNNYATYYADSVKDRFTISRDDSKNSLYLQMNSLKTEDTAVYYCARHGNFGNSYVSWFAYWGQGTLVTVSSAAAGSHHHHHH
0.6 | CD33/CD3 tandem diabody 22 (bispecific antibody) DIQMTQSPSSLSASVGDRVTITCRSSTGAVTTSNYANWVQQKPGKAPKALIGGTNKRAPGVPSRFSGSLIGDKATLTISSLQPEDFATYYCALWYSNLWVFGQGTKVEIKGGSGGSQVQLVQSGAEVKKPGSSVKVSCKASGGTFSSYGISWVRQAPGQGLEWMGGIIPIFGSAHYAQKFQGRVTITADESTSTAYMELSSLRSEDTAVYYCAREYYYDSSEWAFDIWGQGTLVTVSSGGSGQSVLTQPPSASGTPGQRVTISCSGSSSNIGSNTVKWYQQLPGTAPKLLIYSNNQRSSGVPDRFSGSKSGSSASLAISGLQSEDEADYYCAAWDDSLNGYVFGGGTKLTVLGGSGGSEVQLVESGGGLVQPGGSLRLSCAASGFTFSTYAMNWVRQAPGKGLEWVGRIRSKYNNYATYYADSVKDRFTISRDDSKNSLYLQMNSLKTEDTAVYYCARHGNFGNSYVSYFAYWGQGTLVTVSSAAAGSHHHHHH
